# According to article PMC6599135, “Atomic view into Plasmodium actin polymerization, ATP hydrolysis, and fragmentation” (PLoS Biology, 2019):
# B1: Plasmodium falciparum actin I, wild type (natural protein)
# chain: not shown
# notes: Plasmodium falciparum actin I; His74 is not methylated in the recombinant protein; In the pyrene assay about 10% of the actin carried N-(1-pyrene)iodoacetamide; also called PfActI; P. falciparum actin I; source: insect cells, purified (Ni-NTA, TEV cleavage, second Ni-NTA, Superdex 200 gel filtration)
# Target: the molecule itself
# Assay: negative-stain electron microscopy of polymerised samples; polymerised 16 h at 298 K at 20 uM in F buffer without jasplakinolide, diluted to 1 uM, stained with 2% uranyl acetate
protein,measurement,value
B1,binding result,binds
